Laboratory results: publication PMC3382979 (Journal of Structural Biology, 2012)
Where two headings read alike, the source gives them in different places.

What was measured:
[1] = target: the molecule itself; test: negative-stain electron microscopy, single particle analysis
AUC [2] = target: the molecule itself; test: AUC
AUC [3] = target: the molecule itself; test: AUC; remark: listed apart in the source

Protein	stoichiometry N [1]	% Hexamer (AUC [2]) [%]	% Hexamer (AUC [3]) [%]
His6-NSF-D1D2-myc fragment (206-744) (domain or fragment, Chinese hamster (from CHO cells), UniProt P18708 206-744, looked up, (Ni2+-NTA)2-Cy3 bound to the His6 tag (ultracentrifugation only)) QSIINPDWNFEKMGIGGLDKEFSDIFRRAFASRVFPPEIVEQMGCKHVKGILLYGPPGCGKTLLARQIGKMLNAREPKVVNGPEILNKYVGESEANIRKLFADAEEEQRRLGANSGLHIIIFDEIDAICKQRGSMAGSTGVHDTVVNQLLSKIDGVEQLNNILVIGMTNRPDLIDEALLRPGRLEVKMEIGLPDEKGRLQILHIHTARMRGHQLLSADVDIKELAVETKNFSGAELEGLVRAAQSTAMNRHIKASTKVEVDMEKAESLQVTRGDFLASLENDIKPAFGTNQEDYASYIMNGIIKWGDPVTRVLDDGELLVQQTKNSDRTPLVSVLLEGPPHSGKTALAAKIAEESNFPFIKICSPDKMIGFSETAKCQAMKKIFDDAYKSQLSCVVVDDIERLLDYVPIGPRFSNLVLQALLVLLKKAPPQGRKLLIIGTTSRKDVLQEMEMLNAFSTTIHVPNIATGEQLLEALELLGNFKDKERTTIAQQVKGKKVWIGIKKLLMLIEMSLQMDPEYRVRKFLALLREEGASPLDFD	6	44 ± 2.93	14.1 ± 0.31
His6-NSF-myc (1-744), N-Ethylmaleimide Sensitive Factor, wild type (enzyme, Chinese hamster (from CHO cells), UniProt P18708 1-744, looked up, (Ni2+-NTA)2-Cy3 bound to the His6 tag (ultracentrifugation only; 1 mole of dye per mole of NSF hexamer)) MAGRSMQAARCPTDELSLSNCAVVSEKDYQSGQHVIVRTSPNHKYIFTLRTHPSVVPGSVAFSLPQRKWAGLSIGQEIEVALYSFDKAKQCIGTMTIEIDFLQKKNIDSNPYDTDKMAAEFIQQFNNQAFSVGQQLVFSFNDKLFGLLVKDIEAMDPSILKGEPASGKRQKIEVGLVVGNSQVAFEKAENSSLNLIGKAKTKENRQSIINPDWNFEKMGIGGLDKEFSDIFRRAFASRVFPPEIVEQMGCKHVKGILLYGPPGCGKTLLARQIGKMLNAREPKVVNGPEILNKYVGESEANIRKLFADAEEEQRRLGANSGLHIIIFDEIDAICKQRGSMAGSTGVHDTVVNQLLSKIDGVEQLNNILVIGMTNRPDLIDEALLRPGRLEVKMEIGLPDEKGRLQILHIHTARMRGHQLLSADVDIKELAVETKNFSGAELEGLVRAAQSTAMNRHIKASTKVEVDMEKAESLQVTRGDFLASLENDIKPAFGTNQEDYASYIMNGIIKWGDPVTRVLDDGELLVQQTKNSDRTPLVSVLLEGPPHSGKTALAAKIAEESNFPFIKICSPDKMIGFSETAKCQAMKKIFDDAYKSQLSCVVVDDIERLLDYVPIGPRFSNLVLQALLVLLKKAPPQGRKLLIIGTTSRKDVLQEMEMLNAFSTTIHVPNIATGEQLLEALELLGNFKDKERTTIAQQVKGKKVWIGIKKLLMLIEMSLQMDPEYRVRKFLALLREEGASPLDFD	6	62 ± 5.74	47 ± 3.7
His6-NSF-R67A-myc (enzyme, Chinese hamster (from CHO cells), UniProt P18708 1-744, looked up, (Ni2+-NTA)2-Cy3 bound to the His6 tag (ultracentrifugation)) MAGRSMQAARCPTDELSLSNCAVVSEKDYQSGQHVIVRTSPNHKYIFTLRTHPSVVPGSVAFSLPQAKWAGLSIGQEIEVALYSFDKAKQCIGTMTIEIDFLQKKNIDSNPYDTDKMAAEFIQQFNNQAFSVGQQLVFSFNDKLFGLLVKDIEAMDPSILKGEPASGKRQKIEVGLVVGNSQVAFEKAENSSLNLIGKAKTKENRQSIINPDWNFEKMGIGGLDKEFSDIFRRAFASRVFPPEIVEQMGCKHVKGILLYGPPGCGKTLLARQIGKMLNAREPKVVNGPEILNKYVGESEANIRKLFADAEEEQRRLGANSGLHIIIFDEIDAICKQRGSMAGSTGVHDTVVNQLLSKIDGVEQLNNILVIGMTNRPDLIDEALLRPGRLEVKMEIGLPDEKGRLQILHIHTARMRGHQLLSADVDIKELAVETKNFSGAELEGLVRAAQSTAMNRHIKASTKVEVDMEKAESLQVTRGDFLASLENDIKPAFGTNQEDYASYIMNGIIKWGDPVTRVLDDGELLVQQTKNSDRTPLVSVLLEGPPHSGKTALAAKIAEESNFPFIKICSPDKMIGFSETAKCQAMKKIFDDAYKSQLSCVVVDDIERLLDYVPIGPRFSNLVLQALLVLLKKAPPQGRKLLIIGTTSRKDVLQEMEMLNAFSTTIHVPNIATGEQLLEALELLGNFKDKERTTIAQQVKGKKVWIGIKKLLMLIEMSLQMDPEYRVRKFLALLREEGASPLDFD		55.6 ± 12.5	38.7 ± 4.21
His6-NSF-L441A-myc (enzyme, Chinese hamster (from CHO cells), UniProt P18708 1-744, looked up, (Ni2+-NTA)2-Cy3 bound to the His6 tag (ultracentrifugation)) MAGRSMQAARCPTDELSLSNCAVVSEKDYQSGQHVIVRTSPNHKYIFTLRTHPSVVPGSVAFSLPQRKWAGLSIGQEIEVALYSFDKAKQCIGTMTIEIDFLQKKNIDSNPYDTDKMAAEFIQQFNNQAFSVGQQLVFSFNDKLFGLLVKDIEAMDPSILKGEPASGKRQKIEVGLVVGNSQVAFEKAENSSLNLIGKAKTKENRQSIINPDWNFEKMGIGGLDKEFSDIFRRAFASRVFPPEIVEQMGCKHVKGILLYGPPGCGKTLLARQIGKMLNAREPKVVNGPEILNKYVGESEANIRKLFADAEEEQRRLGANSGLHIIIFDEIDAICKQRGSMAGSTGVHDTVVNQLLSKIDGVEQLNNILVIGMTNRPDLIDEALLRPGRLEVKMEIGLPDEKGRLQILHIHTARMRGHQLLSADVDIKELAVETKNFSGAEAEGLVRAAQSTAMNRHIKASTKVEVDMEKAESLQVTRGDFLASLENDIKPAFGTNQEDYASYIMNGIIKWGDPVTRVLDDGELLVQQTKNSDRTPLVSVLLEGPPHSGKTALAAKIAEESNFPFIKICSPDKMIGFSETAKCQAMKKIFDDAYKSQLSCVVVDDIERLLDYVPIGPRFSNLVLQALLVLLKKAPPQGRKLLIIGTTSRKDVLQEMEMLNAFSTTIHVPNIATGEQLLEALELLGNFKDKERTTIAQQVKGKKVWIGIKKLLMLIEMSLQMDPEYRVRKFLALLREEGASPLDFD		34.4 ± 1.06	34.2 ± 2.78
His6-NSF-D2 fragment (488-744) (domain or fragment, Chinese hamster (from CHO cells), UniProt P18708 488-744, looked up, (Ni2+-NTA)2-Cy3 bound to the His6 tag (ultracentrifugation)) IKPAFGTNQEDYASYIMNGIIKWGDPVTRVLDDGELLVQQTKNSDRTPLVSVLLEGPPHSGKTALAAKIAEESNFPFIKICSPDKMIGFSETAKCQAMKKIFDDAYKSQLSCVVVDDIERLLDYVPIGPRFSNLVLQALLVLLKKAPPQGRKLLIIGTTSRKDVLQEMEMLNAFSTTIHVPNIATGEQLLEALELLGNFKDKERTTIAQQVKGKKVWIGIKKLLMLIEMSLQMDPEYRVRKFLALLREEGASPLDFD		28.8 ± 1.92	10.3 ± 0.63
